Measurements taken from paper PMC6930079.

Molecular target: YFP-PP1γ (UniProt P36873)
Assay: live-cell FRET at kinetochores (FRET/CFP intensity ratio)
Details: HeLa cells, MG132 for 1 hr before imaging, 37°C; Cells = 6, Area KT = 42 (4A) and 50 (WT); parent: est. 1.6; read off a plot

UniProt P36873, sequence (P36873 whole entry): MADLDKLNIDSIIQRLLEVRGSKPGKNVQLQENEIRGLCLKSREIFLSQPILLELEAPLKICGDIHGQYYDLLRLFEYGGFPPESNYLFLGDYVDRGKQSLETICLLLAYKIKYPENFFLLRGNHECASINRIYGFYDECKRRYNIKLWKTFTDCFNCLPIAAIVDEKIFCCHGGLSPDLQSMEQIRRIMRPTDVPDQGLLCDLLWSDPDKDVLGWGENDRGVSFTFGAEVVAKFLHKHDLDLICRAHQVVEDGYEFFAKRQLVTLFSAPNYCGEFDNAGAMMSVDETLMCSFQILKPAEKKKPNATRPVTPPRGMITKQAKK

Question: For “Astrin-CFP (WT) (from UniProt Q96R06) 4A (RVMF motif changed to AAAA)”, which response is on record?
Answer: Its response is 1.2.
